Experimental data as given in patent US20170210809A1 (DYAX, published 2017).
Blank lines part the entries; values can stand above or below the binder they belong to.

Experiments:
[1] = molecular target: T1, ErbB3 (HER3) on tumor cells (human, UniProt P21860 20-1342); test: cell-based or functional assay
T1 construct: whole, on cells; Endogenous receptor on human tumor cell lines

[2] = molecular target: IGF-1R and ErbB3 together on tumor cells (MCF7, ADRr, BXPC3) (human) (UniProt P08069); test: FACS on ADRr cells (n = 3), apparent Kd
[3] = molecular target: IGF-1R and ErbB3 together on tumor cells (MCF7, ADRr, BXPC3) (human) (UniProt P08069); test: FACS on MCF7 cells (n = 1), apparent Kd
[4] = molecular target: T1, ErbB3 (HER3) on tumor cells; test: FACS on ADRr and MCF7 cells
[5] = molecular target: T2, IGF-1R (insulin-like growth factor 1 receptor) on tumor cells (human, UniProt P08069 31-1367); test: FACS on ADRr and MCF7 cells
T2 construct: whole, on cells; Endogenous receptor on human tumor cell lines

[6] = molecular target: T2, IGF-1R (insulin-like growth factor 1 …); test: cell-based or functional assay
[7] = molecular target: T1, ErbB3 (HER3) on tumor cells; test: FACS on ADRr cells (n = 3), apparent Kd
Procedure: (§1) 1×10⁵ MCF7 cells and 1×10⁵ ADRr cells are incubated at room temperature for 2 hours with the BBA at 2 uM, followed by 12 subsequent 3-fold dilutions. Then using goat anti-HSA-Alexa647 conjugated antibody as the detection antibody, cells are incubated on ice for 40 minutes. Cell binding dissociation constants (measures of binding affinities) of the BBAs on MCF7 and ADRr cells are assessed by FACS and apparent dissociation constants are determined for each BBA. The following results were obtained (also see FIGS. 12a and 12b): […]

[8] = molecular target: T1, ErbB3 (HER3) on tumor cells; test: FACS binding to ADRr cells, y axis 'GaH-A647 Mean', x axis Ab [nM] (log)
[9] = molecular target: T1, ErbB3 (HER3) on tumor cells; test: FACS on MCF7 cells (n = 1), apparent Kd
[10] = molecular target: T2, IGF-1R (insulin-like growth factor 1 …); test: FACS on ADRr cells (n = 3), apparent Kd
Procedure: as §1

[11] = molecular target: T2, IGF-1R (insulin-like growth factor 1 …); test: FACS on MCF7 cells (n = 1), apparent Kd

T2 sequence (P08069 31-1367): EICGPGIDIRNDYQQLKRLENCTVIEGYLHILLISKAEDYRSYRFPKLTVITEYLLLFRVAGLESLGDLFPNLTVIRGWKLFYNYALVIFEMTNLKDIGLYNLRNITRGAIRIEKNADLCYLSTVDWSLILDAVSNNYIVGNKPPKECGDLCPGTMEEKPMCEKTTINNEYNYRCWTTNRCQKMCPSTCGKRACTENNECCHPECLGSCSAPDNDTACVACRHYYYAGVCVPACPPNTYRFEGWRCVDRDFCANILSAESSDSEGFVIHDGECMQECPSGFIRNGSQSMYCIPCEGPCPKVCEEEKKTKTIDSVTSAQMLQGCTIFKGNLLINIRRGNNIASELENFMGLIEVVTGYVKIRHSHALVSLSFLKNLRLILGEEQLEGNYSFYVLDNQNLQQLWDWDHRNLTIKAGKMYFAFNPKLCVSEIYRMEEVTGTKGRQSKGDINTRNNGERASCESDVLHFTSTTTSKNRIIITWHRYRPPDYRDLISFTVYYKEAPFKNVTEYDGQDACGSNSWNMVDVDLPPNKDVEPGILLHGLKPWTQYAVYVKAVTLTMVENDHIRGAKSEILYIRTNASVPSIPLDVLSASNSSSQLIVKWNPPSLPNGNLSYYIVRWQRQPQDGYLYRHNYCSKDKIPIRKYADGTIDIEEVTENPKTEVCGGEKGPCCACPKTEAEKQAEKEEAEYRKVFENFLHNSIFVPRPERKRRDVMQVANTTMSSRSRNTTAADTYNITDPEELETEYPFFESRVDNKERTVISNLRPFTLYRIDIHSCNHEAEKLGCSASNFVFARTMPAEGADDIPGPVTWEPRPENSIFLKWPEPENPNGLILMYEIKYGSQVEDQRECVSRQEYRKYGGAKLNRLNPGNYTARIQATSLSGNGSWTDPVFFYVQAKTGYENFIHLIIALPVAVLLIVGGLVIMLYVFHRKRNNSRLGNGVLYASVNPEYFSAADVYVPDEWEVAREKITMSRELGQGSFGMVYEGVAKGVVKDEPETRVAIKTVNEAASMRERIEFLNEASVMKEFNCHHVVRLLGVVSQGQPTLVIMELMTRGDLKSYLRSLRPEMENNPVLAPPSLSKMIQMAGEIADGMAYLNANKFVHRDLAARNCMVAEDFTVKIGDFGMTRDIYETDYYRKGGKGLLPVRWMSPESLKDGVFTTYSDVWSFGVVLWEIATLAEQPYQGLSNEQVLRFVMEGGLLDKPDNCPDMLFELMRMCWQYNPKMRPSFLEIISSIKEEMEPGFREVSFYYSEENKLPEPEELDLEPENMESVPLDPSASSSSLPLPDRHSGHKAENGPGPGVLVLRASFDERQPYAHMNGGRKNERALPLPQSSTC
Chain of IGF-1R and ErbB3 together on tumor cells (MCF7, ADRr, BXPC3) (human) (P08069 31-1367, chain 1 of 2): as the sequence (P08069 31-1367) above
Chain of IGF-1R and ErbB3 together on tumor cells (MCF7, ADRr, BXPC3) (human) (P21860 20-1342, chain 2 of 2, further chain): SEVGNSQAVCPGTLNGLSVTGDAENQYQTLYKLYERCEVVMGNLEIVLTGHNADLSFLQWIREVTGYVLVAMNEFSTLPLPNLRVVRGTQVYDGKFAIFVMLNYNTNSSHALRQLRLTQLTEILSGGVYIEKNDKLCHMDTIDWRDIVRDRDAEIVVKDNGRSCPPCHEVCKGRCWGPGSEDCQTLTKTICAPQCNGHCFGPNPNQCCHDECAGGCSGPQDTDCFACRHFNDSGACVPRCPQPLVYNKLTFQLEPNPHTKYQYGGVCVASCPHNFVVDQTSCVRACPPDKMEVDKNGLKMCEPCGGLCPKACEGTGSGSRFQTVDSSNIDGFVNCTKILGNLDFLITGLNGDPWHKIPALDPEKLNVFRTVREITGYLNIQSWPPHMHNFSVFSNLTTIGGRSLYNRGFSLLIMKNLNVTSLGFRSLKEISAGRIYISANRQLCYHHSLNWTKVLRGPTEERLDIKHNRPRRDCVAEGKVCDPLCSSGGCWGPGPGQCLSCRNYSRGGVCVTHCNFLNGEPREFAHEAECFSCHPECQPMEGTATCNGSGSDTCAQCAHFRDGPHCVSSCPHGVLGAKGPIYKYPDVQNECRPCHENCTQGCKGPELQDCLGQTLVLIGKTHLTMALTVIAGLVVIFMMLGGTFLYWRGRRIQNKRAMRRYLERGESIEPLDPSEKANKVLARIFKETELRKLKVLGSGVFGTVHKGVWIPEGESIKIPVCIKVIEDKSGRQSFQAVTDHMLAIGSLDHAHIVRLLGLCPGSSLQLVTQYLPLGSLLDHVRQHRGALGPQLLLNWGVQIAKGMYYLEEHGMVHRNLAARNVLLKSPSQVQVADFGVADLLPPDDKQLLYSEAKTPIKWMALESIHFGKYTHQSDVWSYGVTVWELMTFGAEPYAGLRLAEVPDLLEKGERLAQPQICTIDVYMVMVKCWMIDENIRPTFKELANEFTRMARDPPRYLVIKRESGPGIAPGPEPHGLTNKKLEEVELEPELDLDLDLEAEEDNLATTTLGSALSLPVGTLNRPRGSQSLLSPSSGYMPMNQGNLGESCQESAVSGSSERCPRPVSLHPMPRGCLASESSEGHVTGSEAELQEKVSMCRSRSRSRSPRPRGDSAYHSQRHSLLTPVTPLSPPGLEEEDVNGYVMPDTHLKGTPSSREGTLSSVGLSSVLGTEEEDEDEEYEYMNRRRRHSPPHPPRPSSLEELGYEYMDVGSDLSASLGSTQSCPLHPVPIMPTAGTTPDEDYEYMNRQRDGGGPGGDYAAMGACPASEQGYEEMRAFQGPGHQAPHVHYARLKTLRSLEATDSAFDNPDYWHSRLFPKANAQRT
T1 sequence (P21860 20-1342): as the sequence (P21860 20-1342, chain 2 of 2, further chain) above

Ki, inhibition of BTC-induced pErbB3 formation (ELISA, ADRr cells) [1]: 1.1 nM
Ki, inhibition of HRG-induced pErbB3 formation (ELISA, ADRr cells) [1]: 0.1 nM
B1: Ab #6 (MM-121) (antibody, INN chains, looked up, V domains shown)
VH: EVQLLESGGGLVQPGGSLRLSCAASGFTFSHYVMAWVRQAPGKGLEWVSSISSSGGWTLYADSVKGRFTISRDNSKNTLYLQMNSLRAEDTAVYYCTRGLKMATIFDYWGQGTLVTVSS
VL: QSALTQPASVSGSPGQSITISCTGTSSDVGSYNVVSWYQQHPGKAPKLIIYEVSQRPSGVSNRFSGSKSGNTASLTISGLQTEDEADYYCCSYAGSSIFVIFGGGTKVTVL

Kd [2]: 0.3 nM
Kd [3]: 0.6 nM
binding result [4]: binds
binding result [5]: binds
B3: ILE-12 (bispecific antibody, human IgG2, kappa)
heavy: EVQLLESGGGLVQPGGSLRLSCAASGFTFSVYPMHWVRQAPGKGLEWVSSISSSGGATRYADSVKGRFTISRDNSKNTLYLQMNSLRAEDTAVYYCAKDFYDILTGNAFDIWGQGTMVTVSSASTKGPSVFPLAPCSRSTSESTAALGCLVKDYFPEPVTVSWNSGALTSGVHTFPAVLQSSGLYSLSSVVTVPSSNFGTQTYTCNVDHKPSNTKVDKTVERKCCVECPPCPAPPVAGPSVFLFPPKPKDTLMISRTPEVTCVVVDVSHEDPEVQFNWYVDGVEVHNAKTKPREEQFNSTFRVVSVLTVVHQDWLNGKEYKCKVSNKGLPAPIEKTISKTKGQPREPQVYTLPPSREEMTKNQVSLTCLVKGFYPSDIAVEWESNGQPENNYKTTPPMLDSDGSFFLYSKLTVDKSRWQQGNVFSCSVMHEALHNHYTQKSLSLSPGKGGGGSGGGGSGGGGSLQEVQLLESGGGLVQPGGSLRLSCAASGFTFSVYDMYWVRQAPGKGLEWVSYIYSSGGDTDYADSVKGRFTISRDNSKNTLYLQMNSLRAEDTATYYCARASTNSIYDAMDVWGQGTTVTVSSASTGGGGSGGGGSGGGGSDIQMTQSPSSVSASVGDRVTITCRASQDITNWLAWYQQKPGKAPTLLIYDASTLQSGVPSRFSGSGSGTDFTLTISSLQPEDFATYFCQQANGFPLTFGGGTKVEIK
light: DIQMTQSPSSFSASTGDRVTITCRASQGISSYLAWYQQKPGKAPKLLIYAASTLQSGVPSRFSGSGSGTDFTLTISSLQPEDSATYYCQQYFTFPLTFGGGTKVEIKRTVAAPSVFIFPPSDEQLKSGTASVVCLLNNFYPREAKVQWKVDNALQSGNSQESVTEQDSKDSTYSLSSTLTLSKADYEKHKVYACEVTHQGLSSPVTKSFNRGEC
notes: IgG-linked BBA, designed to be functionally dimeric; the numbers of ILE-12 stand on the line that begins with ILE-13; also called Bs15F3 huIgG2

Kd [7]: 0.4 nM
EC50 (read off the curve) [8]: ~0.3 nM
Kd [9]: 0.04 nM
B5: IgG version of SEQ ID NO: 44 (antibody, V domains shown)
VH: EVQLLESGGGLVQPGGSLRLSCAASGFTFSVYDMYWVRQAPGKGLEWVSYIYSSGGDTDYADSVKGRFTISRDNSKNTLYLQMNSLRAEDTATYYCARASTNSIYDAMDVWGQGTTVTVSS
VL: DIQMTQSPSSVSASVGDRVTITCRASQDITNWLAWYQQKPGKAPTLLIYDASTLQSGVPSRFSGSGSGTDFTLTISSLQPEDFATYFCQQANGFPLTFGGGTKVEIK

Kd [7]: 1.2 nM
Kd [9]: 0.9 nM
B6: IgG version of SEQ ID NO: 33 (antibody, V domains shown)
VH: EVQLLESGGGLVQPGGSLRLSCAASGFTFSAYNMRWVRQAPGKGLEWVSVIYPSGGATRYADSVKGRFTISRDNSKNTLYLQMNSLRAEDTAVYYCARGYYYYGMDVWGQGTLVTVSS
VL: QSVLTQPPSASGTPGQRVTISCSGSDSNIGRNYIYWYQQFPGTAPKLLIYRNNQRPSGVPDRISGSKSGTSASLAISGLRSEDEAEYHCGTWDDSLSGPVFGGGTKLTVLG

Further lines, the binder ahead of its results:

B2: ILE-10 (bispecific antibody, human IgG2, kappa)
heavy: EVQLLESGGGLVQPGGSLRLSCAASGFTFSVYPMHWVRQAPGKGLEWVSSISSSGGATRYADSVKGRFTISRDNSKNTLYLQMNSLRAEDTAVYYCAKDFYDILTGNAFDIWGQGTMVTVSSASTKGPSVFPLAPCSRSTSESTAALGCLVKDYFPEPVTVSWNSGALTSGVHTFPAVLQSSGLYSLSSVVTVPSSNFGTQTYTCNVDHKPSNTKVDKTVERKCCVECPPCPAPPVAGPSVFLFPPKPKDTLMISRTPEVTCVVVDVSHEDPEVQFNWYVDGVEVHNAKTKPREEQFNSTFRVVSVLTVVHQDWLNGKEYKCKVSNKGLPAPIEKTISKTKGQPREPQVYTLPPSREEMTKNQVSLTCLVKGFYPSDIAVEWESNGQPENNYKTTPPMLDSDGSFFLYSKLTVDKSRWQQGNVFSCSVMHEALHNHYTQKSLSLSPGKGGGGSGGGGSGGGGSLQEVQLLESGGGLVQPGGSLRLSCAASGFTFSAYNMRWVRQAPGKGLEWVSVIYPSGGATRYADSVKGRFTISRDNSKNTLYLQMNSLRAEDTAVYYCARGYYYYGMDVWGQGTLVTVSSASTGGGGSGGGGSGGGGSQSVLTQPPSASGTPGQRVTISCSGSDSNIGRNYIYWYQQFPGTAPKLLIYRNNQRPSGVPDRISGSKSGTSASLAISGLRSEDEAEYHCGTWDDSLSGPVFGGGTKLTVLS
light: B3 light
notes: IgG-linked BBA, designed to be functionally dimeric; the numbers of ILE-10 stand on the line that begins with ILE-11; also called Bs14F3 huIgG2
Kd [2]: 7.1 nM
Kd [3]: 4.5 nM
binding result [4]: binds
binding result [5]: binds

B4: AB5-7 IgG2 (antibody, V domains shown)
VH: EVQLLESGGGLVQPGGSLRLSCAASGFTFSVYPMHWVRQAPGKGLEWVSSISSSGGATRYADSVKGRFTISRDNSKNTLYLQMNSLRAEDTAVYYCAKDFYDILTGNAFDIWGQGTMVTVSS
VL: DIQMTQSPSSFSASTGDRVTITCRASQGISSYLAWYQQKPGKAPKLLIYAASTLQSGVPSRFSGSGSGTDFTLTISSLQPEDSATYYCQQYFTFPLTFGGGTKVEIKR
Ki, inhibition of IGF2-induced pAKT formation (ELISA, MCF7 cells) [6]: 0.7 nM

B7: IgG version of SEQ ID NO: 1 (antibody, V domains shown)
VH: B4 VH
VL: B4 VL
Kd [10]: 5.1 nM
Kd [11]: 5.6 nM
